# T1: human BCMA protein expressed on the cell surface (human, UniProt Q02223 1-184)
# T1 construct: whole, on cells; also called CHO-K1-huBCMA; CHOK1-huBCMA
# T1 sequence (looked up): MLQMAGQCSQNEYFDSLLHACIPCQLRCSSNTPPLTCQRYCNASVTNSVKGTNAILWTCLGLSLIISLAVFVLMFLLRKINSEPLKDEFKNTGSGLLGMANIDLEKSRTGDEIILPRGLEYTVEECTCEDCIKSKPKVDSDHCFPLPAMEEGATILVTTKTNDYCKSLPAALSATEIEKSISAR
# T2: human BCMA-His protein (ACRO, Cat#: BCA-H522y) (human, UniProt Q02223 1-54)
# T2 construct: Bought protein; also called Human BCMA protein; huBCMA-his
# T2 sequence: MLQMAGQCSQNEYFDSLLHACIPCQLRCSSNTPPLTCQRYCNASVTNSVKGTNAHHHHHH
# Target: T1, human BCMA protein expressed on the …
# Experiment: flow cytometry on CHOK1-huBCMA cells
row,Binder,binding result
1,"2xhuHA68-4-CD3ScFv (bispecific antibody, HC1 carries two huHA68-4 VHHs in tandem (GGGGS linker) on Fc hole; HC2 is CD3ScFv-knob; also called anti-CD3/BCMA bispecific antibody; diabody) heavy 1: EVQLVETGGGLIQPGGSLRLSCAASGFTFSPSAMSWARQAPGKGLEWVSGIYGDGKAEYADSVKGRFTISRDNSKNTVYLQMNSLRAEDTAVYSCAVGIRPTDAPWAASLRGQGTLVTVSSGGGGSEVQLVETGGGLIQPGGSLRLSCAASGFTFSPSAMSWARQAPGKGLEWVSGIYGDGKAEYADSVKGRFTISRDNSKNTVYLQMNSLRAEDTAVYSCAVGIRPTDAPWAASLRGQGTLVTVSSEPKSSDKTHTCPPCPAPEAAGGPSVFLFPPKPKDTLMISRTPEVTCVVVAVSHEDPEVKFNWYVDGVEVHNAKTKPREEQYNSTYRVVSVLTVLHQDWLNGKEYKCKVSNKALAAPIEKTISKAKGQPREPQVCTLPPSRDELTKNQVSLSCAVKGFYPSDIAVEWESNGQPENNYKTTPPVLDSDGSFFLVSKLTVDKSRWQQGNVFSCSVMHEALHNHYTQKSLSLSPGK heavy 2: not shown",binds
2,"2xhuBH56-3-CD3ScFv (bispecific antibody, HC1 carries two huBH56-3 VHHs in tandem (GGGGS linker) on Fc hole; HC2 is CD3ScFv-knob; also called anti-CD3/BCMA bispecific antibody; diabody) heavy 1: EVQVVESGGGLIQPGGSLRLSCAASGFTFAPSAMSWARQPPGKEVEWVSGIYGDGRTTYADSVKGRFTISRDNSKNTVYLQMNSLRAEDTAVYYCVVGIRLLSESWAQALRGQGTQVTVSSGGGGSEVQVVESGGGLIQPGGSLRLSCAASGFTFAPSAMSWARQPPGKEVEWVSGIYGDGRTTYADSVKGRFTISRDNSKNTVYLQMNSLRAEDTAVYYCVVGIRLLSESWAQALRGQGTQVTVSSEPKSSDKTHTCPPCPAPEAAGGPSVFLFPPKPKDTLMISRTPEVTCVVVAVSHEDPEVKFNWYVDGVEVHNAKTKPREEQYNSTYRVVSVLTVLHQDWLNGKEYKCKVSNKALAAPIEKTISKAKGQPREPQVCTLPPSRDELTKNQVSLSCAVKGFYPSDIAVEWESNGQPENNYKTTPPVLDSDGSFFLVSKLTVDKSRWQQGNVFSCSVMHEALHNHYTQKSLSLSPGK heavy 2: not shown",binds
3,"huHA68-4-CD3ScFv (bispecific antibody, HC1 huHA68-4-hole; HC2 CD3ScFv-knob; also called anti-CD3/BCMA bispecific antibody; diabody) heavy 1: EVQLVETGGGLIQPGGSLRLSCAASGFTFSPSAMSWARQAPGKGLEWVSGIYGDGKAEYADSVKGRFTISRDNSKNTVYLQMNSLRAEDTAVYSCAVGIRPTDAPWAASLRGQGTLVTVSSEPKSSDKTHTCPPCPAPEAAGGPSVFLFPPKPKDTLMISRTPEVTCVVVAVSHEDPEVKFNWYVDGVEVHNAKTKPREEQYNSTYRVVSVLTVLHQDWLNGKEYKCKVSNKALAAPIEKTISKAKGQPREPQVCTLPPSRDELTKNQVSLSCAVKGFYPSDIAVEWESNGQPENNYKTTPPVLDSDGSFFLVSKLTVDKSRWQQGNVFSCSVMHEALHNHYTQKSLSLSPGK heavy 2: not shown",binds
4,"huBH56-3-CD3ScFv (bispecific antibody, HC1 huBH56-3-hole (VHH, EPKSS, Fc hole); HC2 CD3ScFv-knob (CD3 VH, linker, CD3 VL, EPKSS, Fc knob); also called anti-CD3/BCMA bispecific antibody; diabody) heavy 1: EVQVVESGGGLIQPGGSLRLSCAASGFTFAPSAMSWARQPPGKEVEWVSGIYGDGRTTYADSVKGRFTISRDNSKNTVYLQMNSLRAEDTAVYYCVVGIRLLSESWAQALRGQGTQVTVSSEPKSSDKTHTCPPCPAPEAAGGPSVFLFPPKPKDTLMISRTPEVTCVVVAVSHEDPEVKFNWYVDGVEVHNAKTKPREEQYNSTYRVVSVLTVLHQDWLNGKEYKCKVSNKALAAPIEKTISKAKGQPREPQVCTLPPSRDELTKNQVSLSCAVKGFYPSDIAVEWESNGQPENNYKTTPPVLDSDGSFFLVSKLTVDKSRWQQGNVFSCSVMHEALHNHYTQKSLSLSPGK heavy 2: not shown",binds

# Target: T3, human GPRC5D protein expressed on the cell surface (human, UniProt Q9NZD1 1-345)
# T3 construct: NP_061124.1 (NCBI) and Q9NZD1 (UniProt) are printed; also called CHO-K1-huGPRC5D
# Experiment: flow cytometry on 293T-huGPRC5D cells
# T3 sequence (Q9NZD1 whole entry): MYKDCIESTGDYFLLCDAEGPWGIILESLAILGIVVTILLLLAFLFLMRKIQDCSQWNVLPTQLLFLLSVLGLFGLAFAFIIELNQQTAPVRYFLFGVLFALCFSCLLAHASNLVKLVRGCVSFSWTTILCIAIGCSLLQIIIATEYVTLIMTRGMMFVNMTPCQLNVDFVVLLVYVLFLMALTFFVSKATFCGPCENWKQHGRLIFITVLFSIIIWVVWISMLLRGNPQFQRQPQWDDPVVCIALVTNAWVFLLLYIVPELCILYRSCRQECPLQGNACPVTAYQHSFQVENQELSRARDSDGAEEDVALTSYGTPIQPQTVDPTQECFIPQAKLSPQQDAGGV
row,Binder,binding result
1,"humanized anti-GPRC5D VHH-Fc antibody 8H5 (antibody, human IgG1, V domains shown, also called hu8H5; humanized anti-GPRC5D VHH 8H5-Fc) VH: EVQLLESGGGLVQPGGSLRLSCAASGIFLSASVMSWYRQAPGKQRELVASMLNSNTNYADSVKGRFTISRDNSKNTMYLQMNSLRAEDTAVYYCNAERSGVYWGQGTQVTVSS",binds

# Target: T2, human BCMA-His protein (ACRO, Cat#: …)
# Experiment: BLI (ForteBio Octet RED96e), antibody on AHC sensor, 100 nM human BCMA-His, 1:1 model
Binder,Kd [pM],koff [s⁻¹],kon [M⁻¹ s⁻¹]
"269B094 (a fully human monoclonal antibody targeting BCMA) (antibody, V domains shown, also called control antibody; control sample) VH: DVQLVESGGGLVQPGGSLRLSCAASGRTFSSIVMGWFRQAPGKEREFVGAIMWNDGITYLQDSVKGRFTIFRDNAKNTVYLQMNSLKLEDTAVYYCAASKGRYSEYEYWGQGTQVTVSS",1510,0.00155,1e+06
"BH56-IgG (antibody, V domains shown, also called anti-human BCMA chimeric antibody) VH: EVQVVESGGGLVQAGESLTLSCAASGFTFAPSAMSWARQPPGKEVEWVSGIYGDGRTTYADSVKGRFTISRDNAKKTVTLQMNNLEPEDSGNYICVVGIRLLSESWAQALRGQGTQVTVSS",< 1,< 1e-07,1e+06
"huHA68-4-IgG (antibody, V domains shown, Humanized VHH-Fc heavy-chain antibody) VH: EVQLVETGGGLIQPGGSLRLSCAASGFTFSPSAMSWARQAPGKGLEWVSGIYGDGKAEYADSVKGRFTISRDNSKNTVYLQMNSLRAEDTAVYSCAVGIRPTDAPWAASLRGQGTLVTVSS",< 1,< 1e-07,1e+06
"huHA68-3-IgG (antibody, V domains shown, Humanized VHH-Fc heavy-chain antibody) VH: EVQLVETGGGLIQPGGSLRLSCAASGFTFSPSAMSWARQAPGKGLEWVSGIYGDGKAEYADSVKGRFTISRDNSKNTVYLQMNSLRAEDTAVYYCAVGIRPTDAPWAASLRGQGTLVTVSS",< 1,< 1e-07,1e+06
"HA68-IgG (antibody, V domains shown, also called anti-human BCMA chimeric antibody) VH: QVQLVETGGGLVQPGGSLRLSCAASGFTFSPSAMNWARQAPGKGLEWVAGIYGDGKAEYADSVKGRFTISRDNAKNMVYLQMVNLRPEDTAVYSCAVGIRPTDAPWAASLRGQGTQVTVSS",< 1,< 1e-07,1e+06
"huBH56-3-IgG (antibody, V domains shown, Humanized VHH-Fc heavy-chain antibody; Fc with L234A, L235A, D265A, P329A) VH: EVQVVESGGGLIQPGGSLRLSCAASGFTFAPSAMSWARQPPGKEVEWVSGIYGDGRTTYADSVKGRFTISRDNSKNTVYLQMNSLRAEDTAVYYCVVGIRLLSESWAQALRGQGTQVTVSS",< 1,< 1e-07,1e+06
"huBH56-6-IgG (antibody, V domains shown, Humanized VHH-Fc heavy-chain antibody) VH: EVQLVESGGGLIQPGGSLRLSCAASGFTFAPSAMSWARQPPGKGLEWVSGIYGDGRTYYADSVKGRFTISRDNSKNTVYLQMNSLRAEDTAVYYCVVGIRLLSESWAQALRGQGTQVTVSS",< 1,< 1e-07,979000
"huBH56-4-IgG (antibody, V domains shown, Humanized VHH-Fc heavy-chain antibody) VH: EVQLVESGGGLIQPGGSLRLSCAASGFTFAPSAMSWARQPPGKEVEWVSGIYGDGRTYYADSVKGRFTISRDNSKNTVYLQMNSLRAEDTAVYYCVVGIRLLSESWAQALRGQGTQVTVSS",< 1,< 1e-07,1e+06
"huBH56-5-IgG (antibody, V domains shown, Humanized VHH-Fc heavy-chain antibody) VH: EVQVVESGGGLIQPGGSLRLSCAASGFTFAPSAMSWARQPPGKEVEWVSGIYGDGRTTYADSVKGRFTISRDNSKNTVYLQMNSLRAEDTAVYICVVGIRLLSESWAQALRGQGTQVTVSS",< 1,< 1e-07,1e+06
